In article PMC12416549 (2024):
Positions count from the first letter of the chain named. Names and notes keep the numbering of the source. One block for each binder: values may come before it.

Molecular target: T1, TNFR1 (Homo sapiens, UniProt P19438)
T1 chain: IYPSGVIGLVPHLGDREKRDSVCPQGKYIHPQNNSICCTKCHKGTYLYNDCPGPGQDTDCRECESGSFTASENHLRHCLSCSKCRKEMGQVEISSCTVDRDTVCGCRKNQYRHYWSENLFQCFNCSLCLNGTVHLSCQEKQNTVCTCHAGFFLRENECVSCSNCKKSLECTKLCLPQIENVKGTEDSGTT
Test: yeast display SC50

apparent Kd (screen): 0.446 nM
B1: E72L (designed binder)
chain: SMEEEVEKAAKEYEKKKKEAIEKHLEKLKAKDKEAAERFLKELEEAAKEYAKDEAKTMSEEEAKRRAKKYKLKVLLSELSEEEQKEIKEAEEKLVRTILKYVEEAAK

apparent Kd (screen): 13.8 nM
B4: A106F (designed binder)
chain: B1 chain with L72E, A106F

apparent Kd (screen): 0.869 nM
B5: A105T (designed binder)
chain: B1 chain with L72E, A105T

apparent Kd (screen): 0.49 nM
B7: E104T (designed binder)
chain: B1 chain with L72E, E104T

apparent Kd (screen): 0.446 nM
B9: A90R (designed binder)
chain: B1 chain with L72E, A90R

apparent Kd (screen): 1.4 nM
B11: Q84R (designed binder)
chain: B1 chain with L72E, Q84R

apparent Kd (screen): 10.4 nM
B12: A67H (designed binder)
chain: B1 chain with A67H, L72E

apparent Kd (screen): 12.5 nM
B16: K73A (designed binder)
chain: B1 chain with L72E, K73A

apparent Kd (screen): 1.05 nM
B19: E72P (designed binder)
chain: B1 chain with L72P

apparent Kd (screen): 5.31 nM
B20: L99T (designed binder)
chain: B1 chain with L72E, L99T

apparent Kd (screen): 0.49 nM
B22: E62R (designed binder)
chain: B1 chain with E62R, L72E

apparent Kd (screen): 0.49 nM
B24: K69A (designed binder)
chain: B1 chain with K69A, L72E

apparent Kd (screen): 11.4 nM
B25: V95E (designed binder)
chain: B1 chain with L72E, V95E

apparent Kd (screen): 1.16 nM
B26: S80A (designed binder)
chain: B1 chain with L72E, S80A

apparent Kd (screen): 6.43 nM
B33: A63P (designed binder)
chain: B1 chain with A63P, L72E

apparent Kd (screen): 2.73 nM
B35: E89V (designed binder)
chain: B1 chain with L72E, E89V

apparent Kd (screen): 10.4 nM
B36: E91S (designed binder)
chain: B1 chain with L72E, E91S

apparent Kd (screen): 0.446 nM
B39: L75T (designed binder)
chain: B1 chain with L72E, L75T

apparent Kd (screen): 2.25 nM
B42: L99V (designed binder)
chain: B1 chain with L72E, L99V

apparent Kd (screen): 5.31 nM
B45: Y70H (designed binder)
chain: B1 chain with Y70H, L72E

apparent Kd (screen): 2.73 nM
B51: K71E (designed binder)
chain: B1 chain with K71E, L72E

apparent Kd (screen): 10.4 nM
B54: K73Y (designed binder)
chain: B1 chain with L72E, K73Y

apparent Kd (screen): 0.49 nM
B55: K85G (designed binder)
chain: B1 chain with L72E, K85G

apparent Kd (screen): 0.446 nM
B56: K71Q (designed binder)
chain: B1 chain with K71Q, L72E

apparent Kd (screen): 0.446 nM
B58: S80P (designed binder)
chain: B1 chain with L72E, S80P

apparent Kd (screen): 11.4 nM
B59: I98V (designed binder)
chain: B1 chain with L72E, I98V

Continued, binder first:

B2: I21P (designed binder)
chain: B1 chain with I21P, L72E
apparent Kd (screen): 13.8 nM

B3: E4L (designed binder)
chain: B1 chain with E4L, L72E
apparent Kd (screen): 0.79 nM

B6: A20G (designed binder)
chain: B1 chain with A20G, L72E
apparent Kd (screen): 2.73 nM

B8: S59Y (designed binder)
chain: B1 chain with S59Y, L72E
apparent Kd (screen): 7.78 nM

B10: S1Q (designed binder)
chain: B1 chain with S1Q, L72E
apparent Kd (screen): 0.539 nM

B13: Y50D (designed binder)
chain: B1 chain with Y50D, L72E
apparent Kd (screen): 7.78 nM

B14: K56M (designed binder)
chain: B1 chain with K56M, L72E
apparent Kd (screen): 0.718 nM

B15: K41C (designed binder)
chain: B1 chain with K41C, L72E
apparent Kd (screen): 0.49 nM

B17: L43M (designed binder)
chain: B1 chain with L43M, L72E
apparent Kd (screen): 1.86 nM

B18: R38A (designed binder)
chain: B1 chain with R38A, L72E
apparent Kd (screen): 2.73 nM

B21: K41R (designed binder)
chain: B1 chain with K41R, L72E
apparent Kd (screen): 0.869 nM

B23: H24E (designed binder)
chain: B1 chain with H24E, L72E
apparent Kd (screen): 0.49 nM

B27: F39T (designed binder)
chain: B1 chain with F39T, L72E
apparent Kd (screen): 2.73 nM

B28: E26S (designed binder)
chain: B1 chain with E26S, L72E
apparent Kd (screen): 0.539 nM

B29: K23P (designed binder)
chain: B1 chain with K23P, L72E
apparent Kd (screen): 11.4 nM

B30: E7R (designed binder)
chain: B1 chain with E7R, L72E
apparent Kd (screen): 5.84 nM

B31: A51L (designed binder)
chain: B1 chain with A51L, L72E
apparent Kd (screen): 2.73 nM

B32: K48P (designed binder)
chain: B1 chain with K48P, L72E
apparent Kd (screen): 12.5 nM

B34: T57G (designed binder)
chain: B1 chain with T57G, L72E
apparent Kd (screen): 10.4 nM

B37: E26F (designed binder)
chain: B1 chain with E26F, L72E
apparent Kd (screen): 0.956 nM

B38: E7C (designed binder)
chain: B1 chain with E7C, L72E
apparent Kd (screen): 6.43 nM

B40: D32A (designed binder)
chain: B1 chain with D32A, L72E
apparent Kd (screen): 1.4 nM

B41: E42G (designed binder)
chain: B1 chain with E42G, L72E
apparent Kd (screen): 12.5 nM

B43: I21H (designed binder)
chain: B1 chain with I21H, L72E
apparent Kd (screen): 1.05 nM

B44: K16A (designed binder)
chain: B1 chain with K16A, L72E
apparent Kd (screen): 2.73 nM

B46: A47V (designed binder)
chain: B1 chain with A47V, L72E
apparent Kd (screen): 0.49 nM

B47: K16I (designed binder)
chain: B1 chain with K16I, L72E
apparent Kd (screen): 0.446 nM

B48: K56V (designed binder)
chain: B1 chain with K56V, L72E
apparent Kd (screen): 2.73 nM

B49: K15P (designed binder)
chain: B1 chain with K15P, L72E
apparent Kd (screen): 6.43 nM

B50: K31M (designed binder)
chain: B1 chain with K31M, L72E
apparent Kd (screen): 0.49 nM

B52: E44I (designed binder)
chain: B1 chain with E44I, L72E
apparent Kd (screen): 0.956 nM

B53: K41F (designed binder)
chain: B1 chain with K41F, L72E
apparent Kd (screen): 0.718 nM

B57: K29M (designed binder)
chain: B1 chain with K29M, L72E
apparent Kd (screen): 0.869 nM
